Results: article PMC6767918 (Science (New York, N.Y.), 2019)

Target: T1, SidJ^[change] (SidJ 59–851) (L. pneumophila, UniProt Q5ZTK6 59-851)
T1 sequence: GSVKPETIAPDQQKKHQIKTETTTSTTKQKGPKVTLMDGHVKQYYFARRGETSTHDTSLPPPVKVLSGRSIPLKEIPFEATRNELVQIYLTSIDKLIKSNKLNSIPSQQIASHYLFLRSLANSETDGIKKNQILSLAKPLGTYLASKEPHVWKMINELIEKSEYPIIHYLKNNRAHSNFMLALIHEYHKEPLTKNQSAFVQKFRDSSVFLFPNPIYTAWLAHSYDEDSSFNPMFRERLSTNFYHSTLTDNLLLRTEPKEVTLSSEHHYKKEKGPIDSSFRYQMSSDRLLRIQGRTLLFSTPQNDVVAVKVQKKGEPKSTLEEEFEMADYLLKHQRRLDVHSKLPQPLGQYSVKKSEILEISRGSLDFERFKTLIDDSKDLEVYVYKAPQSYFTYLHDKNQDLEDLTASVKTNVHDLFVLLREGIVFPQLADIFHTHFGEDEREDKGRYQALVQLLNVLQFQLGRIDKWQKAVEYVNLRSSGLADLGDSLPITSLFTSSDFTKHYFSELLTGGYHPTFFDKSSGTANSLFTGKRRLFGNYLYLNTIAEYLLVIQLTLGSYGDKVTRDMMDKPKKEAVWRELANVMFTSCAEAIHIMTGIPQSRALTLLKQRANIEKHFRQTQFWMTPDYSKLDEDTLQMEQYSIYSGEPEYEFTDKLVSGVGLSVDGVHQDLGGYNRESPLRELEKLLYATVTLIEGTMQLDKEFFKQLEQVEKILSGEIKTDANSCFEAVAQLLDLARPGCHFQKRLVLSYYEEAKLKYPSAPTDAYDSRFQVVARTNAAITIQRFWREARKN
Experiment: crystal structure

B1: yeast CaM (yCaM) (natural protein)
chain: not shown
**Q.** Does B1 bind?
**A.** binds
